Source: patent US20160244802

What was measured:
[1] = molecular target: T1, dimethyl-K36 histone H3 peptide (STGGV2mKKPHRY-C)
T1 chain: STGGVKKPHRYC

[2] = molecular target: trimethyl-K36 histone H3 peptide
[3] = molecular target: T2, histone H3 (1-18) peptide, di-methyl on lysine 9, P68431
T2 chain: ARTKQTARKSTGGKAPRK

[4] = molecular target: T3, histone H3 (1-18) peptide, tri-methyl on lysine 9, P68431
T3 chain: ARTKQTARKSTGGKAPRK

[5] = molecular target: T4, dimethyl-K9 histone H3 peptide (acetyl-ARTKQTARmeKSTGGKAPRK-biotin)
T4 chain: ARTKQTARKSTGGKAPRK

[6] = molecular target: T5, trimethyl-K9 histone H3 peptide (acetyl-ARTKQTARmeKSTGGKAPRK-biotin)
T5 chain: ARTKQTARKSTGGKAPRK

[7] = molecular target: T6, histone H3 (1-18) peptide, H3K4me3 (Upstate 12-564), P68431
T6 chain: ARTKQTARKSTGGKAPRK

[8] = molecular target: T7, histone H3 (1-18) peptide, H3K4me2 (Upstate 12-460), P68431
T7 chain: ARTKQTARKSTGGKAPRK

[9] = molecular target: T8, histone H3 (1-18) peptide, H3K4me1 (Upstate 12-563), P68431
T8 chain: ARTKQTARKSTGGKAPRK

B1: recombinant Flag-JHDM1A (FBXL11) (protein)
chain: MEPEEERIRYSQRLRGTMRRRYEDDGISDDEIEGKRTFDLEEKLHTNKYNANFVTFMEGKDFNVEYIQRGGLRDPLIFKNSDGLGIKMPDPDFTVNDVKMCVGSRRMVDVMDVNTQKGIEMTMAQWTRYYETPEEEREKLYNVISLEFSHTRLENMVQRPSTVDFIDWVDNMWPRHLKESQTESTNAILEMQYPKVQKYCLMSVRGCYTDFHVDFGGTSVWYHIHQGGKVFWLIPPTAHNLELYENWLLSGKQGDIFLGDRVSDCQRIELKQGYTFVIPSGWIHAVYTPTDTLVFGGNFLHSFNIPMQLKIYNIEDRTRVPNKFRYPFYYEMCWYVLERYVYCITNRSHLTKEFQKESLSMDLELNGLESGNGDEEAVDREPRRLSSRRSVLTSPVANGVNLDYDGLGKTCRSLPSLKKTLAGDSSSDCSRGSHNGQVWDPQCAPRKDRQVHLTHFELEGLRCLVDKLESLPLHKKCVPTGIEDEDALIADVKILLEELANSDPKLALTGVPIVQWPKRDKLKFPTRPKVRVPTIPITKPHTMKPAPRLTPVRPAAASPIVSGARRRRVRCRKCKACVQGECGVCHYCRDMKKFGGPGRMKQSCVLRQCLAPRLPHSVTCSLCGEVDQNEETQDFEKKLMECCICNEIVHPGCLQMDGEGLLNEELPNCWECPKCYQEDSSEKAQKRKMEESDEEAVQAKVLRPLRSCDEPLTPPPHSPTSMLQLIHDPVSPRGMVTRSSPGAGPSDHHSASRDERFKRRQLLRLQATERTMVREKENNPSGKKELSEVEKAKIRGSYLTVTLQRPTKELHGTSIVPKLQAITASSANLRHSPRVLVQHCPARTPQRGDEEGLGGEEEEEEEEEEEDDSAEEGGAARLNGRGSWAQDGDESWMQREVWMSVFRYLSRRELCECMRVCKTWYKWCCDKRLWTKIDLSRCKAIVPQALSGIIKRQPVSLDLSWTNISKKQLTWLVNRLPGLKDLLLAGCSWSAVSALSTSSCPLLRTLDLRWAVGIKDPQIRDLLTPPADKPGQDNRSKLRNMTDFRLAGLDITDATLRLIIRHMPLLSRLDLSHCSHLTDQSSNLLTAVGSSTRYSLTELNMAGCNKLTDQTLIYLRRIANVTLIDLRGCKQITRKACEHFISDLSINSLYCLSDEKLIQKIS
- demethylation of peptide substrate, mass spectrometry [1]: revealed the generation of mono- and unmethylated forms of the peptide in a JHDM1A-dependent manner
- demethylation of peptide substrate, mass spectrometry [2]: we did not detect any demethylation when a trimethyl-K36 peptide was subjected to a parallel reaction (data not shown)

B2: recombinant Flag-JHDM3A (JMJD2A) (protein)
chain: MASESETLNPSARIMTFYPTMEEFRNFSRYIAYIESQGAHRAGLAKVVPPKEWKPRASYDDIDDLVIPAPIQQLVTGQSGLFTQYNIQKKAMTVREFRKIANSDKYCTPRYSEFEELERKYWKNLTFNPPIYGADVNGTLYEKHVDEWNIGRLRTILDLVEKESGITIEGVNTPYLYFGMWKTSFAWHTEDMDLYSINYLHFGEPKSWYSVPPEHGKRLERLAKGFFPGSAQSCEAFLRHKMTLISPLMLKKYGIPFDKVTQEAGEFMITFPYGYHAGFNHGFNCAESTNFATRRWIEYGKQAVLCSCRKDMVKISMDVFVRKFQPERYKLWKAGKDNTVIDHTLPTPEAAEFLKESELPPRAGNEEECPEEDMEGVEDGEEGDLKTSLAKHRIGTKRHRVCLEIPQEVSQSELFPKEDLSSEQYEMTECPAALAPVRPTHSSVRQVEDGLTFPDYSDSTEVKFEELKNVKLEEEDEEEEQEAAALDLSVNPASVGGRLVFSGSKKKSSSSLGSGSSRDSISSDSETSEPLSCRAQGQTGVLTVHSYAKGDGRVTVGEPCTRKKGSAARSFSERELAEVADEYMFSLEENKKSKGRRQPLSKLPRHHPLVLQECVSDDETSEQLTPEEEAEETEAWAKPLSQLWQNRPPNFEAEKEFNETMAQQAPHCAVCMIFQTYHQVEFGGFNQNCGNASDLAPQKQRTKPLIPEMCFTSTGCSTDINLSTPYLEEDGTSILVSCKKCSVRVHASCYGVPPAKASEDWMCSRCSANALEEDCCLCSLRGGALQRANDDRWVHVSCAVAILEARFVNIAERSPVDVSKIPLPRFKLKCIFCKKRRKRTAGCCVQCSHGRCPTAFHVSCAQAAGVMMQPDDWPFVVFITCFRHKIPNLERAKGALQSITAGQKVISKHKNGRFYQCEVVRLTTETFYEVNFDDGSFSDNLYPEDIVSQDCLQFGPPAEGEVVQVRWTDGQVYGAKFVASHPIQMYQVEFEDGSQLVVKRDDVYTLDEELPKRVKSRLSVASDMRFNEIFTEKEVKQEKKRQRVINSRYREDYIEPALYRAIME
- demethylation of peptide substrate, mass spectrometry [3]: no demethylation was observed on a di-methyl H3K9 peptide
- demethylation of peptide substrate, mass spectrometry [4]: the trimethyl-K9 peptide was converted to a dimethyl-K9 peptide

B3: recombinant Flag-JHDM2A (JmjC domain-containing histone demethylase 2A) (protein)
chain: MVLTLGESWPVLVGRRFLSLSAADGSDGSHDSWDVERVAEWPWLSGTIRAVSHTDVTKKDLKVCVEFDGESWRKRRWIEVYSLLRRAFLVEHNLVLAERKSPEISERIVQWPAITYKPLLDKAGLGSITSVRFLGDQQRVFLSKDLLKPIQDVNSLRLSLTDNQIVSKEFQALIVKHLDESHLLKGDKNLVGSEVKIYSLDPSTQWFSATVINGNPASKTLQVNCEEIPALKIVDPSLIHVEVVHDNLVTCGNSARIGAVKRKSSENNGTLVSKQAKSCSEASPSMCPVQSVPTTVFKEILLGCTAATPPSKDPRQQSTPQAANSPPNLGAKIPQGCHKQSLPEEISSCLNTKSEALRTKPDVCKAGLLSKSSQIGTGDLKILTEPKGSCTQPKTNTDQENRLESVPQALTGLPKECLPTKASSKAELEIANPPELQKHLEHAPSPSDVSNAPEVKAGVNSDSPNNCSGKKVEPSALACRSQNLKESSVKVDNESCCSRSNNKIQNAPSRKSVLTDPAKLKKLQQSGEAFVQDDSCVNIVAQLPKCRECRLDSLRKDKEQQKDSPVFCRFFHFRRLQFNKHGVLRVEGFLTPNKYDNEAIGLWLPLTKNVVGIDLDTAKYILANIGDHFCQMVISEKEAMSTIEPHRQVAWKRAVKGVREMCDVCDTTIFNLHWVCPRCGFGVCVDCYRMKRKNCQQGAAYKTFSWLKCVKSQIHEPENLMPTQIIPGKALYDVGDIVHSVRAKWGIKANCPCSNRQFKLFSKPASKEDLKQTSLAGEKPTLGAVLQQNPSVLEPAAVGGEAASKPAGSMKPACPASTSPLNWLADLTSGNVNKENKEKQPTMPILKNEIKCLPPLPPLSKSSTVLHTFNSTILTPVSNNNSGFLRNLLNSSTGKTENGLKNTPKILDDIFASLVQNKTTSDLSKRPQGLTIKPSILGFDTPHYWLCDNRLLCLQDPNNKSNWNVFRECWKQGQPVMVSGVHHKLNSELWKPESFRKEFGEQEVDLVNCRTNEIITGATVGDFWDGFEDVPNRLKNEKEPMVLKLKDWPPGEDFRDMMPSRFDDLMANIPLPEYTRRDGKLNLASRLPNYFVRPDLGPKMYNAYGLITPEDRKYGTTNLHLDVSDAANVMVYVGIPKGQCEQEEEVLKTIQDGDSDELTIKRFIEGKEKPGALWHIYAAKDTEKIREFLKKVSEEQGQENPADHDPIHDQSWYLDRSLRKRLHQEYGVQGWAIVQFLGDVVFIPAGAPHQVHNLYSCIKVAEDFVSPEHVKHCFWLTQEFRYLSQTHTNHEDKLQVKNVIYHAVKDAVAMLKASESSFGKP
- demethylation of peptide substrate, mass spectrometry [5]: demethylation of a dimethyl-K9 peptide depends on the presence of JHDM2A and generated products with masses that correlate with both mono-methyl and unmethylated forms of the peptide
- demethylation of peptide substrate, mass spectrometry [6]: no demethylation was detected when a trimethyl-K9 peptide, that has the same sequence, was subjected to parallel analysis

B4: recombinant Flag-RBP2 (Retinoblastoma Binding Protein 2, JARID1A) (protein)
chain: MAGVGPGGYAAEFVPPPECPVFEPSWEEFTDPLSFIGRIRPLAEKTGICKIRPPKDWQPPFACEVKSFRFTPRVQRLNELEAMTRVRLDFLDQLAKFWELQGSTLKIPVVERKILDLYALSKIVASKGGFEMVTKEKKWSKVGSRLGYLPGKGTGSLLKSHYERILYPYELFQSGVSLMGVQMPNLDLKEKVEPEVLSTDTQTSPEPGTRMNILPKRTRRVKTQSESGDVSRNTELKKLQIFGAGPKVVGLAMGTKDKEDEVTRRRKVTNRSDAFNMQMRQRKGTLSVNFVDLYVCMFCGRGNNEDKLLLCDGCDDSYHTFCLIPPLPDVPKGDWRCPKCVAEECSKPREAFGFEQAVREYTLQSFGEMADNFKSDYFNMPVHMVPTELVEKEFWRLVSSIEEDVIVEYGADISSKDFGSGFPVKDGRRKILPEEEEYALSGWNLNNMPVLEQSVLAHINVDISGMKVPWLYVGMCFSSFCWHIEDHWSYSINYLHWGEPKTWYGVPSHAAEQLEEVMRELAPELFESQPDLLHQLVTIMNPNVLMEHGVPVYRTNQCAGEFVVTFPRAYHSGFNQGYNFAEAVNFCTADWLPIGRQCVNHYRRLRRHCVFSHEELIFKMAADPECLDVGLAAMVCKELTLMTEEETRLRESVVQMGVLMSEEEVFELVPDDERQCSACRTTCFLSALTCSCNPERLVCLYHPTDLCPCPMQKKCLRYRYPLEDLPSLLYGVKVRAQSYDTWVSRVTEALSANFNHKKDLIELRVMLEDAEDRKYPENDLFRKLRDAVKEAETCASVAQLLLSKKQKHRQSPDSGRTRTKLTVEELKAFVQQLFSLPCVISQARQVKNLLDDVEEFHERAQEAMMDETPDSSKLQMLIDMGSSLYVELPELPRLKQELQQARWLDEVRLTLSDPQQVTLDVMKKLIDSGVGLAPHHAVEKAMAELQELLTVSERWEEKAKVCLQARPRHSVASLESIVNEAKNIPAFLPNVLSLKEALQKAREWTAKVEAIQSGSNYAYLEQLESLSAKGRPIPVRLEALPQVESQVAAARAWRERTGRTFLKKNSSHTLLQVLSPRTDIGVYGSGKNRRKKVKELIEKEKEKDLDLEPLSDLEEGLEETRDTAMVVAVFKEREQKEIEAMHSLRAANLAKMTMVDRIEEVKFCICRKTASGFMLQCELCKDWFHNSCVPLPKSSSQKKGSSWQAKEVKFLCPLCMRSRRPRLETILSLLVSLQKLPVRLPEGEALQCLTERAMSWQDRARQALATDELSSALAKLSVLSQRMVEQAAREKTEKIISAELQKAAANPDLQGHLPSFQQSAFNRVVSSVSSSPRQTMDYDDEETDSDEDIRETYGYDMKDTASVKSSSSLEPNLFCDEEIPIKSEEVVTHMWTAPSFCAEHAYSSASKSCSQGSSTPRKQPRKSPLVPRSLEPPVLELSPGAKAQLEELMMVGDLLEVSLDETQHIWRILQATHPPSEDRFLHIMEDDSMEEKPLKVKGKDSSEKKRKRKLEKVEQLFGEGKQKSKELKKMDKPRKKKLKLGADKSKELNKLAKKLAKEEERKKKKEKAAAAKVELVKESTEKKREKKVLDIPSKYDWSGAEESDDENAVCAAQNCQRPCKDKVDWVQCDGGCDEWFHQVCVGVSPEMAENEDYICINCAKKQGPVSPGPAPPPSFIMSYKLPMEDLKETS
- demethylation of peptide substrate, mass spectrometry [7]: 80-90% demethylation of the modified substrate
- demethylation of peptide substrate, mass spectrometry [8]: 80-90% demethylation of the modified substrate
- demethylation of peptide substrate, mass spectrometry [9]: failed to catalyze removal of the mel modification state
